Results published in paper PMC4898654 (Biochemistry, 2016).
Blank lines part the entries; values can stand above or below the molecule they belong to. Where no end group is shown, it is not given here.

Columns and labels:
Rev1-CT domain = conditions: human RIR motifs; cited from earlier work
Polκ RIR (Homo sapiens) [1] = biological target: Polκ RIR (Homo sapiens) (UniProt Q9UBT6); test: intrinsic tryptophan fluorescence; conditions: cited from earlier work
Polκ RIR (Homo sapiens) [2] = biological target: Polκ RIR (Homo sapiens) (UniProt Q9UBT6); test: SPR; conditions: cited from earlier work
yeast Rev7 = conditions: unstructured C-terminal part of Pol32, purified proteins; cited from earlier work
[3] = biological target: T1, Human Rev1 C-terminal domain (Rev1-CT; residues 1158-1251) (human, UniProt Q9UBZ9 1158-1251); test: SPR
T1 sequence (looked up): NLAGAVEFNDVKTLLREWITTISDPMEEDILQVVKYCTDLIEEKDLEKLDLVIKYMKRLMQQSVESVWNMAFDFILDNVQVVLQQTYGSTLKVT

Molecule: CEMSHKKSFFDKKRSER [Polκ-RIR]
affinity range of Rev1-CT interactions with RIR motifs (Rev1-CT domain): µM to mM affinities

Molecule: Rev1 CTD (from UniProt Q9UBZ9)
Kd (Polκ RIR (Homo sapiens) [1]): 300 nM
Kd (Polκ RIR (Homo sapiens) [2]): 7600 nM

B1: Pol32: subunit of yeast Polζ (homologue of human PolD3) (protein, UniProt P47110 1-350, looked up)
DNA polymerase delta subunit 3: MDQKASYFINEKLFTEVKPVLFTDLIHHLKIGPSMAKKLMFDYYKQTTNAKYNCVVICCYKDQTIKIIHDLSNIPQQDSIIDCFIYAFNPMDSFIPYYDIIDQKDCLTIKNSYELKVSESSKIIERTKTLEEKSKPLVRPTARSKTTPEETTGRKSKSKDMGLRSTALLAKMKKDRDDKETSRQNELRKRKEENLQKINKQNPEREAQMKELNNLFVEDDLDTEEVNGGSKPNSPKETDSNDKDKNNDDLEDLLETTAEDSLMDVPKIQQTKPSETEHSKEPKSEEEPSSFIDEDGYIVTKRPATSTPPRKPSPVVKRALSSSKKQETPSSNKRLKKQGTLESFFKRKAK
Rev7 - Pol32 interaction (yeast Rev7): direct interaction

Kd [3]: 1700 ± 600 nM
B2: Polκ-RIR peptide (residues 560-575) modified with an N-terminal cysteine residue (peptide)
peptide: EMSHKKSFFDKKRSER
